Data: the nanobody polyreactivity screen of Harvey et al. (2022)

test: yeast display, Sf9 membrane polyspecificity reagent, FACS + sequencing; frameworks hold sequencing errors
Procedure, shortened: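 Synthetic nanobody libraries on Saccharomyces cerevisiae BJ5465 were galactose-induced for 36–48 hours, stained 1 hour at 4 °C with 10% biotinylated, detergent-solubilized Sf9 membrane reagent and enriched on streptavidin microbeads. FACS then separated cells into low and high (top ~1%) gates by anti-HA (expression) and streptavidin (reagent binding) fluorescence. Genes were colony-PCR amplified, MiSeq 2 × 250 sequenced and CDR-length filtered. A clone's polyreactivity label is that of its gate of origin.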

| Sequence | polyreactivity (PSR sort gate) |
| --- | --- |
| QVQLVESGGGLVQAGGSLRLSCAASGFTLLWNAMGWYRQAPGKERELVAAINKSGGSTYADSVKGRFTISRDNAKNTVYLQMNSLKPEDTAVYYCAAEVDYSYWPEYARKYYYWGQGTQVTVSS | low polyreactivity |
| QVQLVESGGGLVQAGGSLRLSCAASGFTLPANGMGWYRQAPGKERQLVAAISFIAGSTYYADSVKGRFTISRDNAKNTVYLQMKSLKPEDTAVYYCATQFPPSTFYDYWGQGTQVTVSS | low polyreactivity |
| QVQLVESGGGLVQAGGSLRLSCAASGFTLPLYAMGWYRQAPGKERELVATISSGGTTYYADSVKGRFTISRDNAKNTVYLEMNCLKPEDTGVYYCAAGGTFFHRFYYYYRSDYWGQGTQVTVSS | high polyreactivity |
| QVQLVESGGGLVQAGGSLRLSCAASGFTLRRYAMGWYRQAPGKERELVATITSGGTTDYADSVKGRFTISRDNAKNTVYLQMNSLKPEDTAVYYCAAYRRGAYYYWGQGTQVTVSS | high polyreactivity |
| QVQLVESGGGLVQAGGSLRLSCAASGFTLSASAMGWYRQAPGKERELVAGITYTGGRTYYADSVKGRFTISRDNAKNTVYFQMNSLKPEVTAVYYCNKAWSGYYKYGYWGQGTQVSVSS | low polyreactivity |
| QVQLVESGGGLVQAGGSLRLSCAASGFTLSSNPMGWNRQEPGKETELVAAISFNSTSTYYADSVKGRFTISRDNAKNTVYLQMKSLNPEDTAVYYCAADVPRVQSEPEYDYWGQGTQVTVSS | low polyreactivity |
| QVQLVESGGGLVQAGGSLRLSCAASGFTLSWYAMGWYRQAPGKERELVATISRGGITYYADSVKGRFTLSRDNANNTVYVQMNSLKPEDTAVYYCAADYRYGWYRYDYWGQGTQVTVSS | high polyreactivity |
| QVQLVESGGGLVQAGGSLRLSCAASGFTLTLRYAMGWYRQAPGKERELVAAISSGGRTKYADSVKGRFTISRDNAKNTVYLQMNSLKPEDTAVYYCAADLYDPYHVYGYNYWGQGTQVTVSS | low polyreactivity |
| QVQLVESGGGLVQAGGSLRLSCAASGFTLTRNAMGWYRPAPGKERELVAAISWSGGTTYYADSVKGRFTISRDNAKNTVYLQMNSLKPEDTAVYYCAADSVKYGGDYWGQGTQVTVSS | high polyreactivity |
| QVQLVESGGGLVQAGGSLRLSCAASGFTLWLYAMGWSRQAPGKERALVATISYRGDSTYYADSVKGRFTISRDNAKNTVYLQMNSLNPEDTAVYYCARRYTHTGRYYYWGQGTQVTVSS | high polyreactivity |
| QVQLVESGGGLVQAGGSLRLSCAASGFTLWLYAMGWYRQAPGKERELVASISWAGGSTYYADSVKGRFTISRDNAKNTVYLQMNSLKPEDTAVYYCAASRARTRSAYNYSGQGTQVTVSS | high polyreactivity |
| QVQLVESGGGLVQAGGSLRLSCAASGFTLWYNGMGWYRQAPGKERELVATISSRGGGSTYYADSVKGRFTISRDNAKNTVYLQMNSLKPEETAVYYCAADAYYLVPTEGDYWGQGTQVTVSS | low polyreactivity |
| QVQLVESGGGLVQAGGSLRLSCAASGFTLYFYAMGWYRQAPGKERELVATITGSGGSTTYADSVKGRFTISRDNAKNTVYLQMNRLKPEDTAVSYCAAVRVVRASRYQTYHWQPGYCYWGQGTQVTVSS | high polyreactivity |
| QVQLVESGGGLVQAGGSLRLSCAASGFTLYPYAMGWYRPAPGKERELVAAISGSGGSTYYADSVKGRFTISRDNAKNTVYLQMNSLKPEDTAVYYCAARGPQQWWWDDDYWGQGTQVTVSS | high polyreactivity |
| QVQLVESGGGLVQAGGSLRLSCAASGFTLYSYAMGWYRQAPGKERELVAAIRRRGASTYYADSVKGRFTISRDNAKNTVYLQMNSLKPEDTAVYYCAADAKYPDDDYWGQGTQVTVSS | high polyreactivity |
| QVQLVESGGGLVQAGGSLRLSCAASGFTLYSYAMGWYRQAPGKETELVAAITRSGGITYYADSVKGRFTISRDNAKNTVYLQMNSLKPEDTAVYYCAALYLATGVDKAFDSWGQGTQVTVSS | high polyreactivity |
| QVQLVESGGGLVQAGGSLRLSCAASGFTLYTYAMGWYRQAPGKERELVAAISTGGGRTYYADSVKGRFTISRDNAKNTVYLQMNSLKPEDTAVYYCAADSLAKTGGTVGGDYWGQGTQVSVSS | high polyreactivity |
| QVQLVESGGGLVQAGGSLRLSCAASGFTNAMGWYRQAPGKERELVAAISYSGDSTNYADSVKGRFTISRDNAKNTVYLQMNSLKPEDSAVYYCNASSPYDYDWGQGTQVTVSS | low polyreactivity |
| QVQLVESGGGLVQAGGSLRLSCAASGFTSHSYAMGWYRKAPGKERELVAAINGDGGSTYYADSVKGRFTISRDNAKNTLYLQMNSLKPEDTAVYYCAAETAYWYYWGQGSQVTVSS | high polyreactivity |
| QVQLVESGGGLVQAGGSLRLSCAASGFTSSNNAMGWYRQAPGKERELFAAISSSGGRTYYADSVKGRFTISRDNAKNTVYLQMNSLQPEDTAVYFCAATGYVGGIYGHYPRGYWGQGTQVTVSS | high polyreactivity |
| QVQLVESGGGLVQAGGSLRLSCAASGFTSTAYAMGWYRQAPGKERELVAVISSGSSTHYADSVKGRFTISRDNAKNTVYLQMNSLKPEDTAVYYCAARIRTRYFTGFYYWGQGTQVTVSS | high polyreactivity |

| Sequence | polyreactivity (PSR sort gate) |
| --- | --- |
| QVQLVESGGGLVQAGGSLRLSCAASGFTSTINAMGWYRQAPGKERELVAAISVSSGSTYYADSVKGRFTISRDNAKNTVYLQMNSLKPEDTAVYYCATGISRDYIYIILRYDYWGQGTQVTVSS | low polyreactivity |
| QVQLVESGGGLVQAGGSLRLSCAASGFTSWQYAMGWYRQAPGKERELVAAISVSGASTNYADSVRGRFTISRDNAKNTVYLQMNSLKPEETAVYYCAAAYVRYPTTRYYYWGQGTQVTVSS | high polyreactivity |
| QVQLVESGGGLVQAGGSLRLSCAASGFTSYGYAMGWYRQAPGKERELVAAISRSGGSTYYADSVKGRFTISRDNAKNTVYLQMNSLKPEDTAVYYCAVAVGREYVYRYYYWGQGTQVTVSS | high polyreactivity |
| QVQLVESGGGLVQAGGSLRLSCAASGFTVVSYAMGWYRQAPGKERELVAAITYSGTSTYYADSVKGRFTISRDKAKNTVYLQMNSLKPEDTAVYYCNADSSWVPIWYEYDYWGHGTQVTVSS | low polyreactivity |
| QVQLVESGGGLVQAGGSLRLSCAASGFTVYYYALGWYRQAPGKERELVAAISDSGGITSYADSVKGRFTISRDNAKNTVYLQMNSLKPEDTAVYYCAYIFGWSSSSKSYYYWGQGTQVTVSS | low polyreactivity |
| QVQLVESGGGLVQAGGSLRLSCAASGFTYDLNAMGWYRQAPGKEREFVATISQSTGSTYYADSVKGRFTISRDNAKNTVYLQMNSLKPEDTAVYYCNKDRPYTLTWGLYEYWGQGTQVTVSS | low polyreactivity |
| QVQLVESGGGLVQAGGSLRLSCAASGFTYGYYAMGGYRQAPGKERELVAAITNGGRTNYADSVKGRFTISRDNAKNTVYLQMNSLKPEDTAVYYCATDHYWSREGYWGQGTQVTVSS | low polyreactivity |
| QVQLVESGGGLVQAGGSLRLSCAASGFTYVYNAMGWYRQAPGTERELVAAISSGGSTYYADSVKGRFTISRDNAKYTVYLQMNSLKPEDTAVYYCARRSSWFKYEYWGQGTQVTVSS | low polyreactivity |
| QVQLVESGGGLVQAGGSLRLSCAASGFVWNAMGWYRPAPGTERELVAAINWRGGSTNYADSVKGRFTISRDNAKNTVYLQMNSLKPEDTAVYYCAAYFFHYHFYQAAYDYWGQGTQVTVSS | low polyreactivity |
| QVQLVESGGGLVQAGGSLRLSCAASGGIAGNTMGWYRQAPGKERELVAAITRSGGRTYYADSVKGRFTISRDNAKNTVYLQMNSLKPEDTAVYYCAVTGLVRRRYGYWGQGTQVTVSS | high polyreactivity |
| QVQLVESGGGLVQAGGSLRLSCAASGGIFARNVMGWYRQAPGKERELVAAISGSGGSTYYADSVKGRFTISRDNAKNTVYLQMNSLKPEDTAVYYCAARTPGVSVYKDGYWGQGTQVTVSS | low polyreactivity |
| QVQLVESGGGLVQAGGSLRLSCAASGGIFARNVMGWYRQAPGKERELVAAISGSGGSTYYADSVKGRFTISRDNAKNTVYLQMNSLKPEDTAVYYCAARTPGVSVYKDGYWGQGTQVTVTS | low polyreactivity |
| QVQLVESGGGLVQAGGSLRLSCAASGGIFAWNAMGWYRQAPGKERELVAAISGRGGSTTYADSVKGRFTISRDNAKNTVYLQMNSLKPEDTAVYYCAKRWYSGWYKYDYWGQGTQVTVSS | high polyreactivity |
| QVQLVESGGGLVQAGGSLRLSCAASGGIFAYYGMGWYRQAPGKERELVAAIWIGGNTYYADSVKGRFTISRDNAKNTVYLQMNSLKPVDTAVYYCATEGFVYSWLWEFEYWGQGTQVTVSS | low polyreactivity |
| QVQLVESGGGLVQAGGSLRLSCAASGGIFDFYAMGWYRQAPGKERELVAAIRYGGSSTYYADSVKGRFTISRDNAKNTVYLLLNSLKPEDTAVYYCAAEPFSWDTWVDYDYWGQGTQVTVSS | low polyreactivity |
| QVQLVESGGGLVQAGGSLRLSCAASGGIFDTYVMGWYRQAPGKERELVAAITWSGGSTYYADSVKGRFTISRDNAKNTVYLQMNSLKPEDTAVYYCAASGYPIYHDDYWGQGTQVTVSS | low polyreactivity |
| QVQLVESGGGLVQAGGSLRLSCAASGGIFFINAMGWYRQAPGKERELVAAISISDGSTYYADSVKGRFTISRDNAKNTVYLQMNSLKPEDTAVYYCAAEGFDWDSPEMEYWGQGTQVTGSS | low polyreactivity |
| QVQLVESGGGLVQAGGSLRLSCAASGGIFFIYAMGWYRQAPGKERELVAAISWGGGSTYYADSVKGRFTISRDNAKNTFYLQMNSLKPEDTAVYYCAARLYGRGYYYWGQGTQVTVSS | high polyreactivity |
| QVQLVESGGGLVQAGGSLRLSCAASGGIFGKYVMGWYRQAPGKERELVAGISRSAGITYYADSVKGRFTISRDNAKHTVYLQMNSLIPEDTAVYYCNARAWSYPSYHVGYDYWGQGTQVTVSS | high polyreactivity |
| QVQLVESGGGLVQAGGSLRLSCAASGGIFGSYAMGWYRHAPGKERELVADITQSGGRTRYADSVKGRFTISRDNAKNTVYLQMNSLKPEDTAVYYCNAQDVDSGDDYDYWGQGTQVTVSS | low polyreactivity |
